{"source": "patent US8936806B2", "about": "“Periostin induces proliferation of cardiomyocytes and promotes cardiac regeneration” (Children's Medical Center Corporation, priority 2007, dated 2015)", "key": {"[1]": {"tested_on": "adult ventricular cardiomyocytes", "assay": "Transcription of fetal gene program (RT-PCR) in adult ventricular cardiomyocytes", "format": "cell-based, rat"}, "[2]": {"tested_on": "atrial natriuretic factor (ANF)", "assay": "Transcription of atrial natriuretic factor by RT-PCR in neonatal cardiomyocytes", "format": "cell-based, rat", "conditions": "72 hr stimulation", "experimental": "RNA was prepared using Trizol reagent (Invitrogen) from neonatal rat ventricular cardiomyocytes after 72 hr of stimulation. Complementary DNA was synthesized from 2 μg RNA with the SuperScriptIII kit (Invitrogen) using oligo-dT primers. One μL cDNA was used as template for 20 μL PCR-reactions (95° C. for 2 min, 30 cycles of 95° C. for 2 min, 55° C. for 2 min, 72° C. for 5 min, followed by 72° C. for 10 min). Oligonucleotide primers used for detection of ANF were F: 5′-[…]-3′ (Seq ID No. 2), R: 5′-[…]-3′ (Seq ID No. 3), β-actin were F: 5′-[…]-3′ (Seq ID No. 4), R: 5′-[…]-3′ (Seq ID No. 5), […] were F: 5′-[…]-3′ (Seq ID No. 6), R: 5′-[…]-3′ (Seq ID No. 7); SMA were F: 5′-[…]-3′ (Seq ID No. 8), R: 5′-[…]-3′ (Seq ID No. 9); SERCA2 were F: 5′-[…]-3′ (Seq ID No. 10), R: 5′-[…]-3′ (Seq ID No. 11), and for GAPDH: 5′-[…]-3′ (Seq ID No. 12), R: 5′-[…]-3′ (Seq ID No. 13)."}, "[3]": {"tested_on": "ERK1/2 and Akt", "conditions": "neonatal cardiomyocytes", "experimental": "Primary cardiomyocytes or heart tissue were lysed in 20 mM Tris (pH 7.5), 150 mM NaCl, 10 mM EDTA, 1 mM EGTA, 1% Triton X-100, […], 1 mM β-glycerol phosphate, 1 mM Na3VO4, 1 μg/ml, leupeptin, 1% NP-40 and 0.24 mg/mL Pefabloc SC (Roche) at 4° C. Protein concentrations were determined using the BCA assay (Pierce, Rockford, Ill.). Forty μg of cell lysate was separated on 10% SDS-polyacrylamide gels, blotted onto nitrocellulose membranes (Amersham, Piscataway, N. J.), which were then incubated with antibodies according to manufacturer's directions, followed by visualization with ECL reagent (Amersham)."}, "[4]": {"tested_on": "differentiated cardiomyocytes", "assay": "Hypertrophy by [3H]leucine uptake", "format": "cell-based, rat", "conditions": "phenylephrine 10 mM [sic]; all time points tested", "from_the_text": "Induction of the fetal gene program is accompanied by increased protein synthesis leading to cardiomyocyte hypertrophy. We assessed cardiomyocyte hypertrophy by measuring uptake of [^3H]leucine."}, "[5]": {"tested_on": "Adult male Sprague-Dawley rats", "assay": "Rat model of myocardial infarction: analysis of myocardial regeneration (histology, immunofluorescence)", "format": "in vivo", "experimental": "Horizontal cryosections of 14 μm thickness spaced at 1 mm intervals were analyzed. To determine infarct size, Masson's Trichrome-stained sections were analyzed at 1× magnification. The infarct border zone was defined as myocardial tissue within 0.5 mm of the fibrous scar tissue. Fibrosis and cardiomyocyte cross-sectional area were determined after staining with Masson's Trichrome at 10× and 40× magnification, respectively, and quantified using the Metamorph software package. BrdU-positive cardiac fibroblast nuclei were determined at 5 cross-sections per heart at the level of the myocardial infarction. Cardiomyocyte nuclei were counted using the optical dissector method (Howard, C. V. & Reed, M. Unbiased Stereology: Three-Dimensional Measurement In Microscopy, (BIOS Scientific Publishers, Oxford, 2005)) on troponin T and DAPI-stained sections in 32-60 random sample volumes of […] per heart. BrdU-positive cardiomyocyte nuclei were quantified on 16-20 sections per heart. […] Adult male Sprague-Dawley rats (300 gm, Charles River Laboratories) underwent experimental myocardial infarction as described (del Monte, F. et al. Abrogation of ventricular arrhythmias in a model of ischemia and reperfusion by targeting myocardial calcium cycling. Proc Natl Acad Sci USA 101, 5622-7 (2004)). The survival rate was 67%. Gelfoam loaded with 100 μg of recombinant periostin or with buffer were applied over the myocardial infarction at the time of surgery. […] Echocardiography and hemodynamic catheterization were performed as described (Prunier, F. et al. Am J Physiol Heart Circ Physiol (2006)). Horizontal cryosections of 14 μm thickness spaced at 1 mm intervals were analyzed. Masson's Trichrome-stained sections were analyzed at 10× magnification to determine infarct size (Pasumarthi, K. B., et al. Circ Res 96, 110-8 (2005)), defined as [coronal infarct perimeter (epicardial+endocardial)/total coronal perimeter (epicardial+endocardial)]×100 and thinning index (Engel, F. B., et al. Proc Natl Acad Sci USA 103, 15546-51 (2006)), defined as minimal infarct wall thickness/maximal septal wall thickness. The infarct border zone was defined as myocardial tissue within 0.5 mm of the fibrous scar tissue. Fibrosis was determined on 10× images of Masson's Trichrome stainings and quantified using the Metamorph software package (Molecular Devices Corp.). Cardiomyocyte cross-sectional area was determined after staining with Masson's Trichrome at 40× magnification and quantified using the Metamorph software package. BrdU-positive cardiac fibroblast nuclei were determined at 5 cross-sections per heart at the level of the myocardial infarction. Cardiomyocyte nuclei were counted on troponin T and DAPI-stained sections in 32-60 random sample volumes of 84,500 μm^3 per heart. BrdU-positive cardiomyocyte nuclei were quantified on 16-20 sections per heart. Capillaries and stem cells were detected with antibodies against von Willebrand factor (vWF) and c-kit, respectively, and quantified at 5 cross-sections per heart at the level of the myocardial infarction."}, "[6]": {"conditions": "1 week, infarct and border zone"}}, "note": "Several values for one entry are separate records, joined by “and”; a condition that tells them apart may be missing. Equal entries are not always repeated. Entries after “also recorded” stand apart in the source; their conditions may differ."}
{"molecule": "periostin: Recombinant periostin, purified from HEK293 cells expressing the full-length human cDNA; secreted protein of 834 amino acids (Seq ID. No. 1) (protein, listed as Homo sapiens) MIPFLPMFSLLLLLIVNPINANNHYDKILAHSRIRGRDQGPNVCALQQILGTKKKYFSTCKNWYKKSICGQKTTVLYECCPGYMRMEGMKGCPAVLPIDHVYGTLGIVGATTTQRYSDASKLREEIEGKGSFTYFAPSNEAWDNLDSDIRRGLESNVNVELLNALHSHMINKRMLTKDLKNGMIIPSMYNNLGLFINHYPNGVVTVNCARIIHGNQIATNGVVHVIDRVLTQIGTSIQDFIEAEDDLSSFRAAAITSDILEALGRDGHFTLFAPTNEAFEKLPRGVLERFMGDKVASEALMKYHILNTLQCSESIMGGAVFETLEGNTIEIGCDGDSITVNGIKMVNKKDIVTNNGVIHLIDQVLIPDSAKQVIELAGKQQTTFTDLVAQLGLASALRPDGEYTLLAPVNNAFSDDTLSMVQRLLKLILQNHILKVKVGLNELYNGQILETIGGKQLRVFVYRTAVCIENSCMEKGSKQGRNGAIHIFREIIKPAEKSLHEKLKQDKRFSTFLSLLEAADLKELLTQPGDWTLFVPTNDAFKGMTSEEKEILIRDKNALQNIILYHLTPGVFIGKGFEPGVTNILKTTQGSKIFLKEVNDTLLVNELKSKESDIMTTNGVIHVVDKLLYPADTPVGNDQLLEILNKLIKYIQIKFVRGSTFKEIPVTVYTTKIITKVVEPKIKVIEGSLQPIIKTEGPTLTKVKIEGEPEFRLIKEGETITEVIHGEPIIKKYTKIIDGVPVEITEKETREERIITGPEIKYTRISTGGGETEETLKKLLQEEVTKVTKFIEGGDGHLFEDEEIKRLLQGDTPVRKLQANKKVQGSRRRLREGRSQ", "values": [{"measurement": "transcription of SERCA2", "setting": "[1]", "result": "slightly increased"}, {"measurement": "transcription of β-MHC, SMA and ANF", "setting": "[1]", "result": "not increased"}, {"measurement": "transcription of atrial natriuretic factor (ANF)", "setting": "[2]", "result": "did not induce"}, {"measurement": "activation of ERK1/2 and Akt", "setting": "[3]", "result": "activated"}, {"measurement": "[3H]leucine uptake (hypertrophy)", "setting": "[4]", "result": "did not induce uptake; also recorded: did not induce hypertrophy"}, {"measurement": "number of c-kit-positive cells in infarct and border zone vs control", "setting": "[5]; 1 and 12 weeks", "result": "did not differ"}, {"measurement": "mitosis (H3P), of cardiomyocyte nuclei", "setting": "[5]; 1 week", "result": "0.1±0.01", "unit": "%"}, {"measurement": "infarct size vs control", "setting": "[5]; 1 week after MI", "result": "same infarct size"}, {"measurement": "number of BrdU-positive cardiac fibroblasts", "setting": "[5]; 1 week after MI", "result": "decreased"}, {"measurement": "number of cardiomyocyte nuclei vs control", "setting": "[5]; 1 week after MI", "result": "same number of nuclei"}, {"measurement": "proportion of cycling cardiomyocytes vs proportion of apoptotic cardiomyocytes", "setting": "[5]; 1 week after MI", "result": "five-fold higher"}, {"measurement": "arteriolar density vs control", "setting": "[5]; [6]", "result": "did not differ"}, {"measurement": "capillary density vs control", "setting": "[5]; [6]", "result": "did not differ"}, {"measurement": "mitosis (H3P), of cardiomyocyte nuclei", "setting": "[5]; 12 weeks", "result": "0.2±0.5", "unit": "%"}, {"measurement": "fibrotic tissue", "setting": "[5]; 12 weeks after MI", "result": "significantly decreased"}, {"measurement": "heart weight vs buffer-treated rats", "setting": "[5]; 12 weeks after MI", "result": "similar"}, {"measurement": "increase in arteriolar density compared with control hearts", "setting": "[5]; 12 weeks after MI", "result": 1.5, "unit": "fold"}, {"measurement": "increase in capillary density compared with control hearts", "setting": "[5]; 12 weeks after MI", "result": 4, "unit": "fold"}, {"measurement": "infarct size smaller compared with control hearts", "setting": "[5]; 12 weeks after MI", "result": 50, "unit": "%"}, {"measurement": "left ventricular free wall thickness vs control", "setting": "[5]; 12 weeks after MI", "result": "thicker"}, {"measurement": "more cardiomyocyte nuclei than control hearts", "setting": "[5]; 12 weeks after MI", "result": "6.2×10^6"}, {"measurement": "proportion of cycling cardiomyocytes vs proportion of apoptotic cardiomyocytes", "setting": "[5]; 12 weeks after MI", "result": 100, "unit": "fold"}, {"measurement": "scar volume vs control", "setting": "[5]; 12 weeks after MI", "result": "smaller scar volume"}, {"measurement": "septum thickness vs control", "setting": "[5]; 12 weeks after MI", "result": "thinner"}, {"measurement": "thinning index", "setting": "[5]; 12 weeks after MI", "result": "improved thinning index"}, {"measurement": "increased capillary density compared with control animals", "setting": "[5]; FIG. 11A, time not given, legend b80: one week", "result": 4, "unit": "fold"}, {"measurement": "number of stem cells (c-kit) vs buffer treated hearts", "setting": "[5]; FIG. 11B", "result": "similar"}, {"measurement": "calculated new cardiomyocyte nuclei from BrdU rate", "setting": "[5]; after 12 weeks", "result": "7.2×10^6 per heart"}, {"measurement": "cross-sectional cardiomyocyte area vs control", "setting": "[5]; after MI", "result": "smaller"}, {"measurement": "increase of DNA synthesis compared with buffer-treated animals", "setting": "[5]; after MI", "result": 10, "unit": "fold"}, {"measurement": "left ventricular cardiomyocyte nuclei", "setting": "[5]; after MI (FIG. 9i)", "result": 18.8, "unit": "million"}, {"measurement": "cardiomyocyte apoptosis vs control", "setting": "[5]; after MI, 1 and 12 weeks", "result": "without changing the rate of apoptosis; also recorded: without affecting apoptosis; also recorded: similar"}, {"measurement": "DNA synthesis, cardiomyocytes per heart", "setting": "[5]; after MI, 3 BrdU injections", "result": "5,268±402 per heart"}, {"measurement": "BrdU uptake, of cardiomyocytes", "setting": "[5]; infarct and border zone, 1 week", "result": "0.6±0.07", "unit": "%"}, {"measurement": "BrdU uptake, of cardiomyocytes", "setting": "[5]; infarct and border zone, 12 weeks", "result": "1±0.3", "unit": "%"}, {"measurement": "calculated cardiomyocyte nuclei generated from rate of mitosis", "setting": "[5]; over 12 weeks", "result": "5.5×10^6"}, {"measurement": "cardiomyocyte mitoses (metaphase chromosomes)", "setting": "[5]; periostin-treated hearts, n=6", "result": "4,737±770"}, {"measurement": "cell-cycle reentry, of all cardiomyocytes in the infarct border zone", "setting": "[5]; rat, in vivo", "result": "0.6-1%"}, {"measurement": "rate of cardiomyocytes entering the cell cycle", "setting": "[5]; rat, in vivo", "result": "3,727 per hour"}, {"measurement": "cell-cycle reentry of differentiated cardiomyocytes", "setting": "[5]; single injection of BrdU, labeling for 6.4 h, n=3", "result": "23,852±1,709 per heart"}, {"measurement": "BrdU-labeled cardiomyocytes / cell cycle re-entry in the infarct border zone", "setting": "[5]; three injections of BrdU", "result": "1.4% and 1.4±0.5%"}]}
